Several values for one entry are separate records, joined by “and”; a condition that tells them apart may be missing. Equal entries are not always repeated.
B1: canine IgG.B Fc variant M428A with SASA tag (Fc fusion)
chain: APEMLGGPSVFIFPPKPKDTLLIARTPEVTCVVVDLDPEDPEVQISWFVDGKQMQTAKTQPREEQFNGTYRVVSVLPIGHQDWLKGKQFTCKVNNKALPSPIERTISKARGQAHQPSVYVLPPSREELSKNTVSLTCLIKDFFPPDIDVEWQSNGQQEPESKYRTTPPQLDEDGSYFLYSKLSVDKSRWQRGDTFICAVAHEALHNHYTQESLSHSPGK
B2: canine IgG.B Fc variant T256A with SASA tag (Fc fusion)
chain: APEMLGGPSVFIFPPKPKDTLLIARAPEVTCVVVDLDPEDPEVQISWFVDGKQMQTAKTQPREEQFNGTYRVVSVLPIGHQDWLKGKQFTCKVNNKALPSPIERTISKARGQAHQPSVYVLPPSREELSKNTVSLTCLIKDFFPPDIDVEWQSNGQQEPESKYRTTPPQLDEDGSYFLYSKLSVDKSRWQRGDTFICAVMHEALHNHYTQESLSHSPGK
B3: canine IgG.B Fc variant T250A with SASA tag (Fc fusion)
chain: APEMLGGPSVFIFPPKPKDALLIARTPEVTCVVVDLDPEDPEVQISWFVDGKQMQTAKTQPREEQFNGTYRVVSVLPIGHQDWLKGKQFTCKVNNKALPSPIERTISKARGQAHQPSVYVLPPSREELSKNTVSLTCLIKDFFPPDIDVEWQSNGQQEPESKYRTTPPQLDEDGSYFLYSKLSVDKSRWQRGDTFICAVMHEALHNHYTQESLSHSPGK
B4: canine IgG.B Fc variant P307A with SASA tag (Fc fusion)
chain: APEMLGGPSVFIFPPKPKDTLLIARTPEVTCVVVDLDPEDPEVQISWFVDGKQMQTAKTQPREEQFNGTYRVVSVLAIGHQDWLKGKQFTCKVNNKALPSPIERTISKARGQAHQPSVYVLPPSREELSKNTVSLTCLIKDFFPPDIDVEWQSNGQQEPESKYRTTPPQLDEDGSYFLYSKLSVDKSRWQRGDTFICAVMHEALHNHYTQESLSHSPGK
B5: canine IgG.B Fc variant K315A with SASA tag (Fc fusion)
chain: APEMLGGPSVFIFPPKPKDTLLIARTPEVTCVVVDLDPEDPEVQISWFVDGKQMQTAKTQPREEQFNGTYRVVSVLPIGHQDWLAGKQFTCKVNNKALPSPIERTISKARGQAHQPSVYVLPPSREELSKNTVSLTCLIKDFFPPDIDVEWQSNGQQEPESKYRTTPPQLDEDGSYFLYSKLSVDKSRWQRGDTFICAVMHEALHNHYTQESLSHSPGK
B6: canine IgG.B Fc variant Q311A with SASA tag (Fc fusion)
chain: APEMLGGPSVFIFPPKPKDTLLIARTPEVTCVVVDLDPEDPEVQISWFVDGKQMQTAKTQPREEQFNGTYRVVSVLPIGHADWLKGKQFTCKVNNKALPSPIERTISKARGQAHQPSVYVLPPSREELSKNTVSLTCLIKDFFPPDIDVEWQSNGQQEPESKYRTTPPQLDEDGSYFLYSKLSVDKSRWQRGDTFICAVMHEALHNHYTQESLSHSPGK
B7: canine IgG.B Fc variant I308A with SASA tag (Fc fusion)
chain: APEMLGGPSVFIFPPKPKDTLLIARTPEVTCVVVDLDPEDPEVQISWFVDGKQMQTAKTQPREEQFNGTYRVVSVLPAGHQDWLKGKQFTCKVNNKALPSPIERTISKARGQAHQPSVYVLPPSREELSKNTVSLTCLIKDFFPPDIDVEWQSNGQQEPESKYRTTPPQLDEDGSYFLYSKLSVDKSRWQRGDTFICAVMHEALHNHYTQESLSHSPGK
B8: canine IgG.B Fc variant T286A with SASA tag (Fc fusion)
chain: APEMLGGPSVFIFPPKPKDTLLIARTPEVTCVVVDLDPEDPEVQISWFVDGKQMQAAKTQPREEQFNGTYRVVSVLPIGHQDWLKGKQFTCKVNNKALPSPIERTISKARGQAHQPSVYVLPPSREELSKNTVSLTCLIKDFFPPDIDVEWQSNGQQEPESKYRTTPPQLDEDGSYFLYSKLSVDKSRWQRGDTFICAVMHEALHNHYTQESLSHSPGK
B9: canine IgG.B Fc variant Q285A with SASA tag (Fc fusion)
chain: APEMLGGPSVFIFPPKPKDTLLIARTPEVTCVVVDLDPEDPEVQISWFVDGKQMATAKTQPREEQFNGTYRVVSVLPIGHQDWLKGKQFTCKVNNKALPSPIERTISKARGQAHQPSVYVLPPSREELSKNTVSLTCLIKDFFPPDIDVEWQSNGQQEPESKYRTTPPQLDEDGSYFLYSKLSVDKSRWQRGDTFICAVMHEALHNHYTQESLSHSPGK
B10: canine IgG.B Fc variant D378A with SASA tag (Fc fusion)
chain: APEMLGGPSVFIFPPKPKDTLLIARTPEVTCVVVDLDPEDPEVQISWFVDGKQMQTAKTQPREEQFNGTYRVVSVLPIGHQDWLKGKQFTCKVNNKALPSPIERTISKARGQAHQPSVYVLPPSREELSKNTVSLTCLIKDFFPPDIAVEWQSNGQQEPESKYRTTPPQLDEDGSYFLYSKLSVDKSRWQRGDTFICAVMHEALHNHYTQESLSHSPGK

Biological target: T1, canine FcRn (canine)
T1 construct: Injected in solution as SPR analyte
Test: SPR, pH 5.5, FcRn 400 nM over captured Fc

Which Kd does the source give for B1 here?
The Kd was 723 nM and 1670 nM.

And the kon?
The kon was 234000 M⁻¹ s⁻¹ and 318000 M⁻¹ s⁻¹.

How did the Kd turn out when B2 was run?
The Kd was 447 nM and 298 nM.

With B3 as the binder, how does the Kd read?
Its Kd is 335 nM and 328 nM.

For B4, which Kd is on record?
Its Kd is 325 nM and 338 nM.

Which Kd does the source give for B5 here?
Its Kd is 422 nM and 548 nM.

What does the source list for B6?
Kd: 368 nM and 370 nM; koff: 0.894 s⁻¹ and 0.496 s⁻¹; kon: 2.43e+06 M⁻¹ s⁻¹ and 1.34e+06 M⁻¹ s⁻¹

Which Kd does the source give for B7 here?
The Kd was 472 nM and 563 nM.

What about the koff of the same binder?
The koff was 0.169 s⁻¹ and 0.194 s⁻¹.

What about the kon of the same binder?
Its kon is 357000 M⁻¹ s⁻¹ and 345000 M⁻¹ s⁻¹.

Which results are given for B8?
Kd: 464 nM and 569 nM; koff: 0.196 s⁻¹ and 0.304 s⁻¹; kon: 422000 M⁻¹ s⁻¹ and 533000 M⁻¹ s⁻¹

How did the Kd turn out when B9 was run?
The Kd was 341 nM and 257 nM.

With B10 as the binder, how does the Kd read?
The Kd was 673 nM and 592 nM.

What about the koff of the same binder?
The koff was 0.183 s⁻¹ and 0.181 s⁻¹.

And the kon?
Its kon is 272000 M⁻¹ s⁻¹ and 306000 M⁻¹ s⁻¹.

Source: US20230279118A1 (published 2023)
